Data on 41 sequences can be found in the nanobody polyreactivity screen of Harvey et al. (2022).

The nature of the series: yeast display, Sf9 membrane polyspecificity reagent, FACS + sequencing; frameworks hold sequencing errors. In outline: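 Synthetic nanobody libraries on Saccharomyces cerevisiae BJ5465 were galactose-induced for 36–48 hours, stained 1 hour at 4 °C with 10% biotinylated, detergent-solubilized Sf9 membrane reagent and enriched on streptavidin microbeads. FACS then separated cells into low and high (top ~1%) gates by anti-HA (expression) and streptavidin (reagent binding) fluorescence. Genes were colony-PCR amplified, MiSeq 2 × 250 sequenced and CDR-length filtered. A clone's polyreactivity label is that of its gate of origin.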
With “QVQLGESGGGLVQAGGSLRLSCAASGSIFGGNAMGWYRQAPGKERELVAAISTSGSTTYYADSVKGRFTISRDNAKNTVYLQMNSLKPEDTAVYYCARRGGVRGYYGGRRSKMDYWGQGTQVTVSS”, the “polyreactivity (PSR sort gate)” value is listed as “low polyreactivity”.
For the sequence “QVQLGESGGGLVQAGGSLRLSCAASGSTRGYTMGWYRQAPGKERELVAVISYSGGRTYYADSVKGRFTISRDNAKNTVYLQMNSLKPEDTAVYYCNAYYYQFRGIRVSGGYWGQGTQVTVSS”, the “polyreactivity (PSR sort gate)” value is “high polyreactivity”.
“QVQLGESGGGLVQAGGSLRLSCAPSGSPFPYYVMGWYRPAPGKERELVAAISKSGGSTYYADSVKGRFTISRDNAKNTVYLQMNSLKPEDPAVYYCAAAIRSYRGPRFNYWGQGTQVTVSS”: the “polyreactivity (PSR sort gate)” value is listed as “high polyreactivity”.
The result for “QVQLGESGGGLVQAGGSLRLSSAASGRTFGSNAMGWYRQAPGKERELVAASSSTVSTNYADSEKGRFTISRDNAKNTVYLQMNSLKPEDTAVYYCNVTRHYSYVSEYDYWGQGTQVTVSS” reads “low polyreactivity”; that for “QVQLGESGGGLVQAGGSLRLTCAASGSIFRYYAMGWYRQAPGKERELVAAIRWSGGRTYYADSVKGRFTISRDNAKNTVYLQMNSLKPEDTAVYDCAADPPHYKPNVRYYYWGQGTQVTVSS”, “high polyreactivity”; that for “QVQLGESGGGLVQAGGSVRLSCAASGRTFDTNAMGWYRQAPGKERELVAAISWSAGRTYYADSVKGRFTISRDNAKNTVYLQMNSLKPEDTAVYYCAARPPFIAYSWQKHGYYWGQGTQVTVSS”, “low polyreactivity”.
Then “QVQLGESGGGLVQAGGSVRLSCAASGSTFWVNAMGWYRQAPGKERELVAAISNSGGSTYYADSVKGRFTISRDNAKNTVYLQMNSLKPEDTAVYYCAAAGGVDYDYWGQGTQVTVSS”, with “low polyreactivity”; and “QVQLGESGGGLVQEGGSLRLSCAASGSTLQDYDMGWYRQAPGKERELVAAITWSTGTTYYADSVKGRFTISRDNAKNTVYLQMNSLKPEDPAVYYCAVDSYYRATYTYRYDYWGLGTQVTVSS”, with “low polyreactivity”; and “QVQLGESGGRKVQPGGSLRLSCAASGYTIAWYVMGWSRQAPGKESELVAAISWSGGRTYYADSVKGRFTISRDNAKNTVYLQMNSLNPQDTAVYYCNAYWNPASKYDYWGQGTQVTVSS”, with “high polyreactivity”.
For “QVQLGESGRGLVPAGGSLRLSCASSGSIFDRNARGWYRQAPGKERELVAAISSRGGSTYYADSVKGRFTISRDNAKNTVYLQMNSLKPEDTAVYYCNKVRTYGYDYWGQGTQVTVSS”, the “polyreactivity (PSR sort gate)” value is given as “high polyreactivity”.
The result for “QVQLGESGRGLVQAGGSLRLSCAASGRTSWYYAMGWYSQAPGKERELVATSTRSTGSTYYADSVKGRFTISRDNAKNTVYLQMNSLKPEDTAVYYCAKRRKTQPFYIKWYRVDYWGQGTQVTVST” reads “high polyreactivity”; that for “QVQLGETGGGLVQAGGSLRLSCAATGSIFRYNAMGWYRQAPGKERELVAAISGRGTSTYYADSVKGRFTISRDNAKNTVYLQMNSLKPEDTAVYYCAAVYFSSFLVEYYYWGQGTQVTVSS”, “high polyreactivity”; that for “QVQLHESGGGLVQAGGGLRLSCAASGSISSTGFMGWYRQAPGKESEPVAAIAPGTTTYYADSVKGRFTISRDNAKNTVYLHMKSLRPEDTAVYYCAVFTDNRVAFLYWGEGTQVTVSS”, “low polyreactivity”.
With “QVQLHESGGGLVQAGGGLRLTCAASGSISSTGFMGWYRQAPCKELEPVAAIAPGPTTYYADSGKGRFTISRDNAKNTVYLQMTSPRPEDTAVNYGAVFTDNRVAFLYWGQGTQVTVSS”, the “polyreactivity (PSR sort gate)” value is reported as “low polyreactivity”.
The result for “QVQLHESGGGLVQAGGSLRLSCAASGTISVTYNMGWYRQAPGKEREFVAGNSTGATTNYADSVKGRFTISRDNAKNTVYLQMNSLKPEDTAVYYCAAHIYRQDHFYYWGQGTQVTVSS” reads “low polyreactivity”; that for “QVQLHESGGGLVQAGGSLRRSCAASGTISYAGPMGWYRQAPGKEREFVAGIGVGSNTNYADSVKGRYTIIRDNAKNTVYLQMNSLKPEDTAVYYCAVGGYAPLGRPYWGQGTQVTVSS”, “low polyreactivity”.
Then “QVQLHESGGGLVQAGRGLRLSCPASGSITSTGFMGSYRQPPGKEREPVAAIAPGTTTYYADSVKGRFTISRDNAKYTEYLQMNSLRPEDTAVYYCAVFTDNRVAFLYWGQGTQVTVSS”, with “low polyreactivity”; and “QVQLHESGGVLVQAGGSLRLSCAASGTISVHYNMCWYRQEPRQEREFVAGNSTGATTNYADSVKGRFTISRDNENNTVYLQMNSLKPEDTAVYYCAAHIYGQDHFYYWGQGTQVTVSS”, with “low polyreactivity”.
On to “QVQLHESVGGLVQAGVSLRLSCEASGTNFTARFIGWYRQAPGKERELVATITDGCYTNHADSVNGRFTISRDNAKNTVYLTMNSLKPEVAAVYYCAAGDVDNDTLMYWGQGSQVTVSS”, for which the “polyreactivity (PSR sort gate)” value is on record as “low polyreactivity”.
On to “QVQLIESGGGLVQAGGSLRLSCAASGSTCDRNSMGWYRPAPGKERELVAAIDSDVNTYYADSVKGRFTISRDKAKNTVYLQMNSLTPEDTAVYYCAADYYSWPYDYWGQGTQVTVSS”, for which the “polyreactivity (PSR sort gate)” value is “low polyreactivity”.
The result for “QVQLLEIGGGLVQAGGSLRQSCMASGSILGDRMSWYRQAPGKEHELVATIFDGGITYYADSMKGRFTISRDNAKNTVYLQMNSLRPEDTAVYYCGASFDGYRYHVYCGQGTQVTVSS” reads “low polyreactivity”; that for “QVQLLESAGGLVQAGGSLRLSCAASGFIYIPYAMGWYRQAPGKERELVAAISTRGGGTYYADSVKGRFTISRDNAKKPVYLQMNSVKPEDTAVYYCNKQAFYNGRVGYDYWGQGTQVTVSS”, “low polyreactivity”; that for “QVQLLESCGGLVQAGGSLRLSCAASGSILTQYAMGWYRQAPGKERELVAAITGRGGSTYYADSVKGRFTISRDIAMYTVYLEMNSLKPEDTAVFYCAAEERYAYRYDYWGQGTQVTVSS”, “high polyreactivity”.
Turning to “QVQLLESGGGIVKAGGFLRLSCAASGSTFRRYAMGRYREAPGIERELVAAITGRGGSTSYADSVKGRFTISRDNAMNTVYLQMNSLKPEDTSVYYCAADDKYFYPGNGYWGQGTQVTVSS”, the “polyreactivity (PSR sort gate)” value is listed as “high polyreactivity”.
Take “QVQLLESGGGLDQAGGILRLSCASSGRTFNWYAMGWYRQAPGKEREFVAAINWSGGSTYYADSVKGRFTISRDNAKNTVYLQMNSLKPEDTAVYYCNKYPVGYRMYYWGQGTQVTVSS”: the “polyreactivity (PSR sort gate)” value is on record as “low polyreactivity”.
Regarding “QVQLLESGGGLGQAGGSLRLSCAASGIIFRDSGMGWYRQAPGKEREFVATITYSGGGTYYADSVKGRFTISRDHAKNTVYLQMNSLKPEDTAVYYCAAYPFYYDLAYDYWGQGTQVTVSS”, the “polyreactivity (PSR sort gate)” value is “low polyreactivity”.
Then “QVQLLESGGGLLQAGGSLRLSCAASGITLIGNAMGWYRQAPGKESELVAAISKSGGNTFYAVSVKGRFTISRDNAKNTVYLQMNSLKPEDTAVYYCAADGYYGYYSQYEYLYYYWGQGTQVTVSS”, with “high polyreactivity”; and “QVQLLESGGGLVEAGGSLRLSCSASGSTYNAMGWYRQATGKEREFVAYITTGGGGTYYADSVKGRFTISRDNAKNTVYLQMNSLKPEETADYYCAAEDYRTRTYVYRYRYYFWGQGTQVTVAS”, with “high polyreactivity”; and “QVQLLESGGGLVPAGGSLRLSCAASGRIFSRYAMGWYRQAPGKERELVAAISRNGGSTYYADSVKGRFTISRDNAKNTVYLQMISLKPEDTAVYYCAASYFIYHYDFDYWGQGTQVTVSS”, with “high polyreactivity”.
The result for “QVQLLESGGGLVPSRGSLRLSCAASGFIFGHNTMGWYRQAPGKERELVARITSSGGGTNYADSVKGRFTISRDNAKNTVYLQMNSLKPEDTAVYYCAAELLYWGYYDYDYWGQGTQVTVSS” reads “high polyreactivity”; that for “QVQLLESGGGLVQAGGILRLSCAASGIIFRYYTMGWYRPAPGKERELVAAITSGGSTNYADSVKGRFTISRDNAKHTVYLQMNRLKPEDTAVYYCRQLSVWGYDYWGQGTQVTVSS”, “high polyreactivity”; that for “QVQLLESGGGLVQAGGRLRLSCAASGSIFLWNAMGWYRQAPGKERELVAAITNIGGRTYYADSVKGRFTISRDNAKNTVYLQMNSLKPEDTAVYYCNVVVKGAWDYYPYDYWGQGTQVTVSS”, “high polyreactivity”.
For “QVQLLESGGGLVQAGGSHRLSCAASGIIFQWNVMGWYRQAPGKERELVASITSGSSTHYADSVKVRFTISRDNAKNSVYLQMNSLKPEDTAVYYFAADGALRAEYDVEIEYDYWGQGTQVNVSS”, the “polyreactivity (PSR sort gate)” value was “low polyreactivity”.
Then “QVQLLESGGGLVQAGGSLRLICSASGRTFSGYALGWYRHSPGRERELVAAITSSGSSKYYADSVKGRFTISRDKAKYTVYLQMKSLKPEDTAVYYCAATPQAHSEPYFYQRKYDFWGEGTQVTVSS”, with “low polyreactivity”.
Then “QVQLLESGGGLVQAGGSLRLRCAASGFIISRYAMAWYRQAPGKEMELVAGITGSGGSTYYADSVKGRFTISRDNAKNTVYLQMNSLKPEDTAVYYCAAGRRGGALLFYYWGQGTLVTVSS”, with “high polyreactivity”.
In the case of “QVQLLESGGGLVQAGGSLRLSCAASGFIFDESAKGRYRQAPGKERQLVAAISWSGSRTYYADSVKGRFTISRDNAKNTVYLQMNSLKPEDTAVYYCAKVTGVGAGRRNYWGQGTQVTVSS”, the “polyreactivity (PSR sort gate)” value was “low polyreactivity”.
The result for “QVQLLESGGGLVQAGGSLRLSCAASGFIFNHYAMGWYRQAPGKEREFVAAISWSGGSTYYADSVKGRFTISRDNAKNTVYLQMNSLKPEDTAVYYCAASYNGLWHGDYDYWGQGTQVTVSS” reads “low polyreactivity”; that for “QVQLLESGGGLVQAGGSLRLSCAASGFTFEDNAMGWYRKAPGKERELVAADGTNYADSVKGRFTISRDNAKNTVYLQMNSLKPEDTAVYYCARYARQVTPLSIGLYDYWGQGTQVTVSS”, “low polyreactivity”; that for “QVQLLESGGGLVQAGGSLRLSCAASGIIFRVYAMGWYRQAPGKERELVATITWSGGSTFYADSVKGRFTISRDNAKNTVYLQMNSLKPEDTAVYYCAKRGYVRSGLGRPYADDYWGQGTQVTVSS”, “low polyreactivity”.
Then “QVQLLESGGGLVQAGGSLRLSCAASGITFQLYAMGWYRQAPGKEREFVAAINGRSGRTYYADSVKGRFTISRDNAKNTVYLHMNSLKPEDTAVYYCAKTSNGYGSGLPMYYWGQGTQVTVSS”, with “high polyreactivity”; and “QVQLLESGGGLVQAGGSLRLSCAASGLTFNTYAMGWYIQAPGKERELVAAISRGGGSTYYADSVKGRFTISRDNAKNTVYLQMNSLKPEDTAVYYCNAEKRASYLLYDYWGQGTQVTVSS”, with “high polyreactivity”.
